Data as given in article PMC8830681, “Circadian control of heparan sulfate levels times phagocytosis of amyloid beta aggregates” (PLoS Genetics, 2022).

Legend:
[1] = system: bone-marrow derived macrophages (BMDMs) from Per2::Luc C57BL/6J mice; assay: Phagocytosis assay of HiLyte 488 labeled amyloid-beta by serum-shock synchronized macrophages (with or without heparinases); type: cell-based, mouse
Text: To do so, we modified a previously-employed BMDM phagocytosis assay (as BMDMs are both models for activated microglia and are known to migrate into the brain in late-stage AD), to use fluorescently labeled Aβ42 to determine if the phagocytosis of Aβ42 is controlled by the circadian clock. In brief, BMDMs were derived from bone marrow progenitor cells extracted from Per2::Luc C57BL/6J mice and differentiated with recombinant Macrophage Colony Stimulating Factor (M-CSF), with flow cytometry confirming complete differentiation into naïve peripheral macrophages. […] 16 h after synchronization, confluent dishes of these BMDMs were treated HiLyte 488 labeled Aβ42 (Anaspec), in triplicate, every 4 h over a 24 h circadian period. BMDMs treated with labeled Aβ42 were harvested two hours after Aβ42 treatment and fixed with formalin. Total cellular fluorescence levels were analyzed with fluorescent confocal microscopy and quantified using a custom cell measurement MATLAB script (Fig 1A, S2 Fig, and S1 Table).
Bone marrow was harvested from the femurs and tibias of one 3–6-month-old male mouse using a 26 g needle and syringe filled with DMEM supplemented media. ACK lysing buffer (Lonza 10-548E) was used to lyse red blood cells in order to prevent erythrocyte contamination. Filtered bone marrow cells were counted using a BioRad TC20 automated cell counter and plated on 35 mm cell culture plates at a density of 1 x 10^6 in macrophage differentiation media. After three days of incubation at 37°C with 5% CO2, fresh macrophage differentiation media was added. After another 3 days of incubation, the cells were washed with 2 ml warm PBS per plate, and replaced with macrophage assay media, and the cultures were incubated for 24 h. Macrophage cultures were then washed with 2 ml warm PBS, macrophage serum starvation media was added, and the plates were incubated in the starve media for 24 h. Next, macrophage serum starvation media was removed, and macrophage serum shock media was added, and cultures were incubated for 2 h. Macrophage cultures were then washed with 2 ml warmed PBS each and macrophage media Luciferin was added. Cultures were sealed with grease and glass cover slips and placed in a LumiCycle 32 luminometer (Actimetrics) to confirm synchronization of circadian rhythmicity. Assays began 16 h post serum shock to allow the synchronized cells to return to homeostasis.
All amyloid-beta isoforms were reconstituted 24 h or less before experimentation in water and PBS (1:1) and were dissolved using sonication for approximately 30 min. The reconstituted Aβ was pooled from individual vials before aliquoting for each experimental replicate. The aliquots were then flash frozen and stored at -80°C until 20 min before use.
Using synchronized macrophages (as described above) starting at PS16 macrophages were treated every 4 h for 24 h, in triplicate, with 115 μl (0.25 mg/ml) of fluorescently labeled amyloid-beta (PS16, PS20, PS24, PS28, PS32, PS36, and PS40) and heparinases at the reported activity levels (S5 Table). The treated macrophages were then incubated at 37°C for 2 h. Following the two-hour incubation, the media was aspirated, and the macrophages were washed with 2ml of PBS three times before Cell Stripper (Corning 25-056-CI) was added to the cultures, which were then incubated at 37°C for 3 min. Detached macrophages were next centrifuged at 400 g for 5 min, the supernatant was aspirated, and the macrophage cell pellets were resuspended in formalin and incubated in the dark at room temperature for 30 min. Macrophages were then centrifuged for 5 min at 400 g, the supernatant was aspirated, and the macrophages were resuspended in 250 μL of PBS and kept at 4°C. The fixed macrophages were imaged using fluorescent microscopy within a week of the experiment. All fluorescent images from the phagocytosis experiments are available on Mendeley Data (doi: 10.17632/zrmgjyggmr.1). […]

[2] = as a free peptide and when bound to HSPGs; cited from earlier work
Text: In addition to binding Aβ42, HSPGs regulate the formation of Aβ42 plaques, with highly-sulfated HSPGs accumulating in the plaques. Aβ peptides exist in two forms (Aβ40 or Aβ42) based on the cleavage of the amyloid precursor protein (APP) by β- and γ-secretase. Previous studies show differential phagocytosis of Aβ42 and Aβ40, yet the key amino acids essential to binding are present in Aβ40 (Fig 6C) (13–16, HHQK). However, the anionic bridge between lysine 28 and […], which is broken by HSPGs to allow the formation of Aβ42 aggregates by rapidl ...

[3] = system: BMDMs from PER1^-/-/PER2^-/- knockout (KO) mice; assay: Phagocytosis assay of HiLyte 488 labeled Aβ42 in clock knockout macrophages; type: cell-based, mouse
Experimental: (Fig 1B and 1C, S1 Fig). The extended harmonic circadian oscillator model (ECHO version 4.1) was used to analyze the average of the three replicates from each timepoint and predicted that Aβ42 total cellular florescence, and therefore the phagocytosis of Aβ42, oscillated with a circadian period (~26 h, ECHO p-value = 1.61 x 10^−6). Additionally, when compared with PER2 levels extrapolated based on the lumicycle data of the macrophages sampled, we saw that total cellular fluorescence was highest after the zenith of PER2 levels (Fig 1B and 1C). The Aβ42 phagocytosis experiment was then repeated using PER1^-/-/PER2^-/- knockout (KO) mice to confirm the circadian influence of this relationship. BMDMs from the knockout mice were extracted, derived into naïve macrophages, and synchronized as described above. KO macrophages were treated with fluorescently labeled Aβ42 for 2 h, in triplicate, every 4 h for 24 h starting at PS16.
PER2::LUC C57BL/6J male mice 3–6 months of age bred from Jackson Labs stock strains (Accession # 006852) were used for all WT experiments and were euthanized using CO2 gas and cervical dislocation. […]
Average cellular pixel intensities were used as a proxy for of Aβ phagocytosis. At least 100 cells measured per time point were analyzed using the above-described software. […]

[4] = Heparinase enzymatic activity; type: biochemical
Text: We hypothesized that the rhythmic oscillation of HSPGs may inhibit the phagocytosis of Aβ42 due to the antiphase relationship between Aβ42 phagocytosis and PG levels and the published repressive effect of HSPGs on Aβ42 phagocytosis (Figs 1 and 4). To validate this hypothesis, we individually purified Heparinases I, II, and III, removed endotoxins, and confirmed Heparinase enzymatic activity (see Methods) (S5 Table). Heparinase I cleaves between D-glucosamine and L-iduronic acid in highly sulfated regions, heparinase III cleaves between N-acetyl-D-glucosamine in low or unsulfated regions, and heparinase II cleaves in both positions. We then extracted, derived, synchronized, and exposed BMDMs to fluorescently-labeled Aβ42 every 4 h over one circadian day. We next added a mixture of Heparinase I, II, and III to cleave all forms of HSPGs, with each biological replicate receiving a decreasing concentration of total heparinases (Replicate 1: 0.9577mg/ml of total heparinases, Replicate 2: 0.5071 mg/ml of total heparinases, Replicate 3: 0.2794 mg/ml of total heparinases) of the mixture of the three heparinases (see S5 Table). Immediately following the addition of the heparinases, we added fluorescently labeled Aβ42 and sampled Aβ42 levels inside the cell 2 hours later. By using fluorescently labeled Aβ42, we controlled for endogenously generated Aβ, which can be affected by HSPG expression through its interaction with BACE1 processing of the amyloid precursor protein [67].
Heparinases were prepared as has been previously reported. All heparinases used were purified away from endotoxins using an Endotoxin Removal Kit from GenScript (L00338).

[5] = log10 mean cell fluorescence, >100 cells per replicate, triplicate, g >0.2 small, >0.5 medium, >0.8 large effect

Molecule	Oscillation Type ([1]; ECHO v4.1 fit, average of 3 replicates, log10 mean cell fluorescence, 2 h uptake every 4 h PS16-PS40, WT Per2::Luc BMDMs)	aggregation kinetics compared with Aβ40 (in words) [2]	oscillation of Aβ42 phagocytosis in knockout macrophages (in words) ([3]; 2 h treatment, in triplicate, every 4 h for 24 h starting at PS16, total cellular fluorescence)	Oscillation Type ([3]; ECHO v4.1 fit, average of 3 replicates, log10 mean cell fluorescence, 2 h uptake every 4 h from PS16, PER1-/-/PER2-/- KO BMDMs)	Activities (U/ml) ([4]; heparinase stock of the 'All Hep' experiment)	Activities (U/ml) ([4]; heparinase stock of the 'Hep I only' / 'Hep III only' experiments)	effect of heparinase treatment on the daily oscillation of Aβ42 phagocytosis (in words) ([1]; heparinase added immediately before HiLyte 488 Aβ42, cells sampled 2 h later, triplicate)	Hedges' g, phagocytosis vs Aβ42-alone at PS20 (nadir, CT8) [1, 5]	Hedges' g, phagocytosis vs Aβ42-alone at PS32 (zenith, CT20) [1, 5]	Hedges' g, phagocytosis PS20 vs PS32 within the same treatment ([1]; log10 mean cell fluorescence, triplicate, for heparinases: Aβ42 phagocytosis in their presence)
Amyloid-beta 42 labeled with HiLyte 488 [Aβ42]	Forced	higher aggregation kinetics	ablation of the zenith of fluorescence at PS32	Damped						
Heparinase III: Recombinant Flavobacterial heparin lyase III; cleaves in low or unsulfated regions of HSPGs (protein, UniProt Q59289 25-659, looked up) Heparin-sulfate lyase: QSSSITRKDFDHINLEYSGLEKVNKAVAAGNYDDAAKALLAYYREKSKAREPDFSNAEKPADIRQPIDKVTREMADKALVHQFQPHKGYGYFDYGKDINWQMWPVKDNEVRWQLHRVKWWQAMALVYHATGDEKYAREWVYQYSDWARKNPLGLSQDNDKFVWRPLEVSDRVQSLPPTFSLFVNSPAFTPAFLMEFLNSYHQQADYLSTHYAEQGNHRLFEAQRNLFAGVSFPEFKDSPRWRQTGISVLNTEIKKQVYADGMQFELSPIYHVAAIDIFLKAYGSAKRVNLEKEFPQSYVQTVENMIMALISISLPDYNTPMFGDSWITDKNFRMAQFASWARVFPANQAIKYFATDGKQGKAPNFLSKALSNAGFYTFRSGWDKNATVMVLKASPPGEFHAQPDNGTFELFIKGRNFTPDAGVFVYSGDEAIMKLRNWYRQTRIHSTLTLDNQNMVITKARQNKWETGNNLDVLTYTNPSYPNLDHQRSVLFINKKYFLVIDRAIGEATGNLGVHWQLKEDSNPVFDKTKNRVYTTYRDGNNLMIQSLNADRTSLNEEEGKVSYVYNKELKRPAFVFEKPKKNAGTQNFVSIVYPYDGQKAPEISIRENKGNDFEKGKLNLTLTINGKQQLVLVP					20.212 U/ml	5.305 U/ml	oscillations in Aβ42 phagocytosis were also ablated	0.5409	0.22	0.1663
